# Source: US20260027179A1, “ANTI-SYNUCLEINOPATHY PEPTIDE AND METHODS TO TREAT NEURODEGENERATIVE DISEASES” (University of British Columbia, priority 2021, published 2026)
# Columns and labels:
# endogenous α-synuclein = target: T1, endogenous α-synuclein (Mus musculus, UniProt O55042); assay: α-synuclein expression in peripheral and brain tissues after peptide injection; type: in vivo; settings: 6 μmol/kg, i.p., 6 hours after peptide injection
# T1 construct: from tissue; host or cells: kidney, spleen, ventral midbrain, striatum
# [1] = target: T2, purified recombinant human α-synuclein (Homo sapiens, UniProt P37840); assay: Biacore peptide-protein binding assay; settings: 0.20-12.50 μM peptide, report point 20 seconds into dissociation
# T2 construct: His (histidine tag) (N); purchased Sigma S7820-500UG
# Experimental: Biacore experiments were performed using a Biacore 3000 instrument (GE Healthcare Biosciences, Upsala, Sweden) and HBS running buffer, pH 7.4, containing 10 mM HEPES, 150 mM NaCl, 3 mM EDTA, and 0.005% surfactant P20. A research-grade CM5 sensor chip was activated with a mixture containing equal molar amounts of EDC (N-ethyl-N′-(dimethylaminopropyl) carbodiide and NHS (N-hydroxysuccinimide). Purified recombinant human α-synuclein (N-terminal histidine tagged, Sigma, S7820-500UG), diluted in sodium acetate pH 3.1, was then injected and covalently coupled to a flow cell of the sensor chip surface by amide bonding. Residual unreacted sites were blocked with ethanolamine. A reference surface, to account for non-specific binding, was similarly generated by activating and blocking an adjacent flow cell. Approximately 1500 resonance units (RU), equivalent to a surface concentration of 1500 pg/mm^2 of α-synuclein, was immobilized.
# To ascertain the binding interaction between α-synuclein knockdown peptides and α-synuclein, synthetic Tat-βsyn-degron peptide or control tat peptide was serially diluted and sequentially injected over the active surface containing immobilized α-synuclein and the reference surface for 3 minutes at a flow rate of 30 μl/minute. The peptides were then allowed to dissociate for 3 minutes during which time HBS running buffer was injected. The resultant sensorgrams were double-referenced by subtracting out the binding on the reference surface and the response from the HBS blank buffer control. Binding response report points were collected 20 seconds into the dissociation phase of the interaction at time 200 seconds, which represents a stable binding response and excludes bulk refractive index changes and nonspecific binding.
# HSP90 = HSP90 level in cortical cultures, immunoblot; type: cell-based, rat; settings: 50 μM, 24 hrs
# Experimental: (§1) Primary rat neuron cultures were prepared from embryos of pregnant Sprague-Dawley rats (E18). The experimental protocol was approved by the University of British Columbia Animal Care Committee. Briefly, the cortical tissue or ventral midbrain tissue was isolated into ice cold HBSS (Invitrogen, 14170-112) and then digested with 0.25% trypsin-EDTA at 37° C. for 30 min. After washing with warm DMEM (supplemented with 10% FBS) three times, neurons were suspended in neuron culture media and dissociated by trituration using varying sizes of pipettes. Neurons were then centrifuged, and the pellet was re-suspended in culture media, washed twice with culture media, and plated on the poly-D-lysine-coated plates. Neuron culture was maintained in the 37° C. incubator with 95% O2 and 5% CO2. The morning after culturing, 2/3 of the neuron culture media was replaced with fresh neuron culture media. Media was then replaced every 3-4 days. […]
# (§2) Brain tissues or cultured cells were lysed on ice in the lysis buffer and then the solution was centrifuged at 14,000 rpm for 10 min at 4° C. Next, the supernatant was collected and protein concentrations were determined using a BCA protein assay kit (Thermo Scientific, 23227). […] The band density of each protein was quantified by the Bio-Rad Quantity One software and the relative optical density was analyzed relative to the loading control β-actin on the same membrane.
# [2] = tested on: β2/3 subunit of the GABAA receptor; assay: GABAA receptor β2/3 subunit level in cortical cultures, immunoblot; type: cell-based, rat; settings: 50 μM, 24 hrs
# Experimental: as §1, §2
# TH-positive neurons = assay: Protection against MPP+ toxicity in ventral midbrain cultures (TH protein, TH-positive neuron counting); type: cell-based, rat; settings: 25 μM, 48 hrs, MPP+ 20 μM
# Experimental: Primary rat neuron cultures were prepared from embryos of pregnant Sprague-Dawley rats (E18). The experimental protocol was approved by the University of British Columbia Animal Care Committee. Briefly, the cortical tissue or ventral midbrain tissue was isolated into ice cold HBSS (Invitrogen, 14170-112) and then digested with 0.25% trypsin-EDTA at 37° C. for 30 min. After washing with warm DMEM (supplemented with 10% FBS) three times, neurons were suspended in neuron culture media and dissociated by trituration using varying sizes of pipettes. […]
# Neurons were then washed 6×2 min in PBS, and incubated in Alexa Fluor 488 (Life technologies, A-11034; 1:500 dilution in 3% BSA/PBS) for 45 min at 37° C. without agitation. […] Neurons were then imaged with the Zeiss Axio Observer D1 microscope at 20× and 10 fields of view per coverslip were randomly selected and counted. […]
# as §2
sequence,measurement,setting,value
YGRKKRRQRRRRTKSGVYLVGRRRG (The sequence is synthesized (YGRKKRRQRRRRTKSGVYLVGRRRG)) [Tat-βsyn-degron],α-synuclein expression in the kidney,endogenous α-synuclein,significantly reduce the α-synuclein expression
same,α-synuclein expression in the spleen,endogenous α-synuclein,significantly reduce the α-synuclein expression
same,α-synuclein expression in the striatum,endogenous α-synuclein,significantly reduce the α-synuclein expression
same,α-synuclein expression in the ventral midbrain,endogenous α-synuclein,significantly reduce the α-synuclein expression
same,binding response to immobilized α-synuclein,[1],robust and similar binding
same,expression level of HSP90,HSP90,did not affect the expression levels
same,expression level of β2/3 subunit of the GABAA receptor,[2],did not affect the expression levels
same,numbers of TH-positive neurons after MPP+,TH-positive neurons; blinded counting,almost fully protected dopaminergic neurons
same,TH protein levels after MPP+,TH-positive neurons; immunoblot,rescue of TH protein levels
